Test results from patent publication US20230235013A1 (MABSOLVE, published 2023).
Changes are numbered by the printed parent chain. In names and notes the source's numbering stands.

B1: anti-CD20 (rituximab) human IgG1 L234K/L235V/G236R (antibody)
heavy: QVQLQQPGAELVKPGASVKMSCKASGYTFTSYNMHWVKQTPGRGLEWIGAIYPGNGDTSYNQKFKGKATLTADKSSSTAYMQLSSLTSEDSAVYYCARSTYYGGDWYFNVWGAGTTVTVSSASTKGPSVFPLAPSSKSTSGGTAALGCLVKDYFPEPVTVSWNSGALTSGVHTFPAVLQSSGLYSLSSVVTVPSSSLGTQTYICNVNHKPSNTKVDKKVEPKSCDKTHTCPPCPAPEKVRGPSVFLFPPKPKDTLMISRTPEVTCVVVDVSHEDPEVKFNWYVDGVEVHNAKTKPREEQYNSTYRVVSVLTVLHQDWLNGKEYKCKVSNKALPAPIEKTISKAKGQPREPQVYTLPPSRDELTKNQVSLTCLVKGFYPSDIAVEWESNGQPENNYKTTPPVLDSDGSFFLYSKLTVDKSRWQQGNVFSCSVMHEALHNHYTQKSLSLSPGK
light: QIVLSQSPAILSASPGEKVTMTCRASSSVSYIHWFQQKPGSSPKPWIYATSNLASGVPVRFSGSGSGTSYSLTISRVEAEDAATYYCQQWTSNPPTFGGGTKLEIKRTVAAPSVFIFPPSDEQLKSGTASVVCLLNNFYPREAKVQWKVDNALQSGNSQESVTEQDSKDSTYSLSSTLTLSKADYEKHKVYACEVTHQGLSSPVTKSFNRGEC
notes: EU numbering; also called 2-26; 1-91; copies: 2 + 2
B2: anti-CD20 human IgG1 L234K/L235S/G236R (antibody)
heavy: B1 heavy with V239S
light: B1 light
notes: also called 2-24; 1-89
B3: anti-CD20 human IgG1 L234S/L235R/G236R (antibody)
heavy: B1 heavy with K238S, V239R
light: B1 light
notes: also called 2-51
B4: anti-CD20 human IgG1 L234R/L235I/G236R (antibody)
heavy: B1 heavy with K238R, V239I
light: B1 light
notes: also called 2-39
B5: anti-CD20 human IgG1 L234T/L235T/G236R (antibody)
heavy: B1 heavy with K238T, V239T
light: B1 light
notes: also called 2-63; 1-165
B6: anti-CD20 human IgG1 L234R/L235K/G236R (antibody)
heavy: B1 heavy with K238R, V239K
light: B1 light
notes: also called 2-40
B7: anti-CD20 human IgG1 L234S/L235G/G236R (antibody)
heavy: B1 heavy with K238S, V239G
light: B1 light
notes: also called 2-47; 1-140
B8: anti-CD20 human IgG1 L234K/L235R/G236R (antibody)
heavy: B1 heavy with V239R
light: B1 light
notes: also called 2-23; 1-88
B9: anti-CD20 (rituximab) human IgG1 L234R/L235E/G236R (antibody)
heavy: B1 heavy with K238R, V239E
light: B1 light
notes: EU numbering; also called 2-37; copies: 2 + 2
B10: anti-CD20 (rituximab) human IgG1 L234Q/L235V/G236R (antibody)
heavy: B1 heavy with K238Q
light: B1 light
notes: EU numbering; copies: 2 + 2
B11: anti-CD20 human IgG1 L234Q/L235V/G236R (antibody)
heavy: B1 heavy with K238Q
light: B1 light
B12: anti-CD20 human IgG1 L234R/L235R/G236R (antibody)
heavy: B1 heavy with K238R, V239R
light: B1 light
notes: also called 2-43
B13: anti-CD20 human IgG1 L234D/L235K/G236R (antibody)
heavy: B1 heavy with K238D, V239K
light: B1 light
notes: also called 2-7; 1-23
B14: anti-CD20 (rituximab) human IgG1 L234R/L235D/G236R (antibody)
heavy: B1 heavy with K238R, V239D
light: B1 light
notes: EU numbering; copies: 2 + 2
B15: anti-CD20 human IgG1 L234A/L235S/G236R (antibody)
heavy: not shown
light: B1 light
notes: also called 2-4; 1-14
B16: anti-CD20 (rituximab) human IgG1 L234T/L235K/G236R (antibody)
heavy: B1 heavy with K238T, V239K
light: B1 light
notes: EU numbering; also called 2-58; copies: 2 + 2
B17: anti-CD20 human IgG1 L234G/L235S/G236R (antibody)
heavy: B1 heavy with K238G, V239S
light: B1 light
notes: also called 2-19; 1-59
B18: anti-CD20 human IgG1 L234Q/L235A/G236R (antibody)
heavy: not shown
light: B1 light
notes: also called 2-27
B19: anti-CD20 human IgG1 L234K/L235V/G236R (antibody)
heavy: B1 heavy
light: B1 light
notes: also called 2-26; 1-91

What was measured:
[1] = target: T1, human FcRn (R&D Systems Cat. No. 8639-Fc) (human, UniProt P55899 24-297; P61769 21-119); assay: SPR, FcRn captured; Expt 1
[2] = target: T1, human FcRn (R&D Systems Cat. No. …); assay: SPR, FcRn captured; Expt 3
[3] = target: T1, human FcRn (R&D Systems Cat. No. …); assay: SPR, FcRn captured; Mean
[4] = target: T1, human FcRn (R&D Systems Cat. No. …); assay: SPR, FcRn captured; Expt 2
[5] = target: T2, Human C1q (Sigma Cat. No. 20476), HRP-labelled (human, UniProt P02745 23-245; P02746 28-253; P02747 29-245); assay: ELISA, antibody coated, HRP-C1q; Expt 1, buffer alone 0.061
T2 construct: Coupled to horse-radish peroxidase with Lightning-Link kit; also called HRP-labelled C1q

[6] = target: T3, Histidine-tagged recombinant human FcγRI (CD64) (human, UniProt P12314 16-288, limits assumed); assay: SPR, His-FcγRI captured; Expt 1;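 note: SPR at 25 °C on anti-His antibody chip capturing FcγRI, Fc-variant antibodies injected at 100 µg/mL for 1 min, signal near end of injection minus buffer blank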
T3 construct: bought

[7] = target: T3, Histidine-tagged recombinant human …; assay: SPR, His-FcγRI captured; Expt 2;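 note: biacore T200 SPR at 25 °C, Fc-variant antibodies at 100 µg/mL flowed 1 min over anti-His-captured receptor, signal read near injection end minus third buffer blank; antibody analyte injected at 100 µg/mL for 1 min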
[8] = target: T4, human FcγRIIIA (F158) (human, UniProt P08637 17-208); assay: SPR, FcγRIIIA captured; note: test concentration or dose not given here
T4 construct: bought; F158 allele

[9] = target: T3, Histidine-tagged recombinant human …; assay: SPR, His-FcγRI captured; Expt 3;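 note: biacore T200 SPR at 25 °C, Fc-variant antibodies at 100 µg/mL flowed 1 min over anti-His-captured FcγRI, signal taken just before injection end minus a buffer blank cycle; antibody analyte injected at 100 µg/mL for 1 min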
[10] = target: T3, Histidine-tagged recombinant human …; assay: SPR, His-FcγRI captured; mean;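 note: biacore T200 SPR at 25 °C, anti-His surface capturing FcγRI, Fc-variant antibodies injected at 100 µg/mL for 1 min, signal near injection end minus third buffer blank, three repeats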

T4 sequence (P08637 17-208 limits assumed): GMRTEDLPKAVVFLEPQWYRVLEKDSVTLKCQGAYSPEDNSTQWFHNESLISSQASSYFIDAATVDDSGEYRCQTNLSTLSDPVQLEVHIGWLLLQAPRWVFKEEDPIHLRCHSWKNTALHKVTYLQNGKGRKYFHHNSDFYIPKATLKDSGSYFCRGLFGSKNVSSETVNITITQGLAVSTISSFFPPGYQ
T1 sequence (P55899 24-297 limits assumed, chain 1 of 2): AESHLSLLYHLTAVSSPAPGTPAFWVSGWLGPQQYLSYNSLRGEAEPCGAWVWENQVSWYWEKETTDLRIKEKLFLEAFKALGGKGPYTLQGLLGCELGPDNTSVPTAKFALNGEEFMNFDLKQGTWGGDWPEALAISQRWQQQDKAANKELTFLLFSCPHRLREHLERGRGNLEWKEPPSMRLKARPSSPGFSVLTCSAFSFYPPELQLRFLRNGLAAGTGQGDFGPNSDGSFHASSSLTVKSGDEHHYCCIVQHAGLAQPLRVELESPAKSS
T1 sequence (P61769 21-119 limits assumed, chain 2 of 2): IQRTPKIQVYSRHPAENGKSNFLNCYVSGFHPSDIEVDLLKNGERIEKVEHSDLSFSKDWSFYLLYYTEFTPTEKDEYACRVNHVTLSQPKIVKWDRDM

| Binder | Corrected and normalised response (% of wild-type reference) [1] | Corrected and normalised response (% of wild-type reference) [2] | Corrected and normalised response (% of wild-type reference) [3] | Corrected and normalised response (% of wild-type reference) [4] | Mean Absorbance [5] | Corrected response (RU) [6] [RU] | Corrected response (RU) [7] [RU] | Corrected response (RU) [8] [RU] | Corrected response (RU) [9] [RU] | Corrected response (RU), Mean [10] [RU] |
| --- | --- | --- | --- | --- | --- | --- | --- | --- | --- | --- |
| B1 | 101 % of wild-type reference | 100 % of wild-type reference | 101 % of wild-type reference | 100 % of wild-type reference | 0.073 absorbance (450 nm) | – | – | – | – | – |
| B2 | – | – | – | – | – | -1.7 | 1.1 | 7.3 | 4.1 | – |
| B3 | – | – | – | – | – | -1.1 | – | 2.4 | 1.6 | 0.8 |
| B4 | – | – | – | – | – | -0.8 | -0.2 | 2.7 | – | 0.1 |
| B5 | – | – | – | – | – | 1.3 | – | 17.1 | – | – |
| B6 | – | – | – | – | – | 0 | 2.4 | 4.4 | 3.9 | – |
| B7 | – | – | – | – | – | 2.6 | – | 3.8 | 3.7 | 2.6 |
| B8 | – | – | – | – | – | 0.6 | – | 7.1 | 3.2 | 2.2 |
| B9 | 99 % of wild-type reference | 97.8 % of wild-type reference | 98.4 % of wild-type reference | 98.6 % of wild-type reference | 0.048 absorbance (450 nm) | – | – | – | – | – |
| B10 | 97.3 % of wild-type reference | 97.4 % of wild-type reference | 97.1 % of wild-type reference | 96.6 % of wild-type reference | 0.032 absorbance (450 nm) | – | – | – | – | – |
| B11 | – | – | – | – | – | 0.5 | 2.5 | 4.7 | 4.5 | 2.5 |
| B12 | – | – | – | – | – | -0.4 | 1.8 | 10.2 | – | 0.7 |
| B13 | – | – | – | – | – | -1.4 | 0.1 | 3.7 | 1.8 | 0.2 |
| B14 | 95.5 % of wild-type reference | 96 % of wild-type reference | 95.6 % of wild-type reference | 95.4 % of wild-type reference | 0.038 absorbance (450 nm) | – | – | – | – | – |
| B15 | – | – | – | – | – | 0 | -1.2 | 6 | 2.4 | 0.4 |
| B16 | 99.2 % of wild-type reference | 100 % of wild-type reference | 100 % of wild-type reference | 100 % of wild-type reference | 0.126 absorbance (450 nm) | – | – | – | – | – |
| B17 | – | – | – | – | – | -0.1 | 2.7 | 5.8 | 3.1 | – |
| B18 | – | – | – | – | – | – | – | 4.4 | 3.6 | 2.2 |
| B19 | – | – | – | – | – | -1.7 | 0.4 | 5.5 | 3.1 | 0.6 |
